Substrate in data set [1]: CCC(=O)SCCNC(=O)CCNC(=O)[C@H](O)C(C)(C)COP(=O)(O)OP(=O)(O)OC[C@H]1O[C@@H](n2cnc3c(N)ncnc32)[C@H](O)[C@@H]1OP(=O)(O)O
Description: purified protein. The data set is classed as biochemical, Saccharopolyspora erythraea. The settings on record: 3 mM ATP, 5 mM MgCl2, 50 mM NaH14CO3, 100 mM Hepes pH 7.5, 30 °C.

Substrate in data set [2]: CC(=O)SCCNC(=O)CCNC(=O)[C@H](O)C(C)(C)COP(=O)(O)OP(=O)(O)OC[C@H]1O[C@@H](n2cnc3c(N)ncnc32)[C@H](O)[C@@H]1OP(=O)(O)O
Description: purified protein. The data set is classed as biochemical, Saccharopolyspora erythraea. Conditions: 3 mM ATP, 5 mM MgCl2, 50 mM NaH14CO3, 100 mM Hepes pH 7.5, 30 °C.

Data set [3] concerns the molecule itself. Description: SEC; Superdex 200 10/300 GL in 50 mM Hepes pH 7.5, 150 mM NaCl, 20% glycerol; calibrated with molecular mass standards; two peaks, dimer (404 kDa) and monomer (186.9 kDa).

B1: SACE_4237 (Saccharopolyspora erythraea NRRL 2338) (protein)
chain: MFSRVAIVNRGEAAMRLVHAVRELAAETGERIETVALHTDVDRTATFVREADLRYDLGPASARPYLDLGVLERALVESGADAAWVGWGFVAEDPAFAELCEKIGVTFIGPSAEAMRRLGDKIGAKLLAEEVGVPVAPWSRGEVSDLDGARRAADEIGYPLMLKATAGGGGRGIRVINSEQELTEAYERTRMEAERAFGNGAVFLERLVTGARHVEVQVIADGQGTAWALGVRDCSVQRRNQKIIEESASPVLTAEQSRELKAAAERLARAVEYRGAGTVEFLYHPGEELFAFLEVNTRLQVEHPITEATTGVDLVKAQLHVASGGRLEGEPPAELGHAVEARLNAEDPDRDFAPSPGRIVRLSLPAGPGIRVDTGVSEGDTIPADFDSMIAKIIAYGSDREQALGRLRRAMAQTTVIVAGGATNKSFVLDLLNRDEVVDGSADTGWIDRERAAGGLRSHQHSAIALAAAAVEAYEDAELAARQQFLSTAHGGRPQVRHETGRPLELKLRDESYRVLVARVGHQRYRIGIDTGSQQHTADVEIERFDSHTGQITVNGQRFRLVTDTHGPVHLVEVDGVTHRVSQDEGGVLRSPAPALVVATPVEIGEEVEAGAPVLVLESMKMETVLRAPFRARLRERMVAAGSQIETGAPLLRLEPVGDQEAAEEAEAATPVELALPVAPSARDAHERAARGLQDLRSVLLGFDVDPHDEQRVLDDYLAARAELVAAGQRPLDGEIELLQVFADLSELSRNRPAGEEAKADTRVHSPREYFHTYLQSLDVERAGLSETFQQRLLRVLGHYGVEGADRTPELEEAVFRIFLAQQRAASDAAVVTTLLGHWLTEVPPPGETRTAAGLVLEHLVAATQLRFPVVCDLARTVVFHWFAQPMLRRNRAEVYSVVRGHLRHLDAHPDAHDRAERIAEMVGTAEPLVRLLGQRIGREGTDPAPLLEVLTRRYYGNRALDGVRTTRVAGSTAVVAEYQDEHPRVVATAVDFAALPEAVRAIGELAADGDLVADIYLTWADQPEDSDAMAAELGEVLGAQGLPGQVGRITTTVAGRSGAVMHHHFTFEPASEGVAEQRLIRGLHPLIAERLQLRRWRDFDLTRLPSADEEVYLFRSVARENPSDERFVAMAQVRDLTPLRDDEGRLVALPAAEGVLTGCLDAIRKVQARVPARQRSSTNRIVIYVWPPVELTSEELRALGRRVLPTTAGAGLEEVLFLGRRRDRETGELREVAVRVGYEAGSEPRMSVGEPPTERIEPLNSYRQKVLRAAKRGTVYPYELTGMLAGGQGTFVEHDLDADGVLVPVDRPKGQNSAAIVAGVVTTPTERHPEGVTRVVLLGDPTKSLGALSEPECSRVIAALDLAERMRVPLEWFALSAGARISMDSGTENMDWVAAALKRIVHFTQDGGEINVVVAGINVGAQPYWNAEATMLMHTKGILVMTPDSAMVLTGKQSLDFSGGVSADDNFGIGGYDRVMGPNGQAQYWAPNLAAAREVLMSHYDHTYVVPGEEAPRQAATTDPRDRDICDYPHEFAGSDFTTVGEIFSATANPDRKKSFDIRTVMRALADQDHPVLERWAGMADADTAAVQDVHLGGHPVCLLGIESRPVPRHGFPPTDGPDTYTAGTLFPRSSKKAARAINAASGNRPLVVLANLSGFDGSPESMRKLQLEYGAEIGRAIVNFRGPIVFCVISRYHGGAFVVFSKALNPNMTVLAVEGSYASVIGGAPAAAVVFSGEVNDRTAKDQRVRDLEARLAEAGDADRTALTLELAETRRAVHAEKLGEVAAEFDRVHSVQRAVEVGSVDAIVRADELRPQIIEAIEKGMLPQ
notes: full-length gene, N-terminal His6 tag, E. coli BL21λ(DE3) with pCY216 (biotin ligase)
As for B1, in data set [1], the Km was found to be 98 ± 1 µM, the Vmax stood at 0.00016 µmol/min, the kcat amounted to 0.052 ± 0.002 s⁻¹ and the kcat/Km was found to be 520 ± 40 M⁻¹ s⁻¹. In data set [2], the Km was determined as 168 ± 1 µM, the Vmax came out at 0.00043 µmol/min, the kcat worked out at 0.143 ± 0.004 s⁻¹ and the kcat/Km worked out at 850 ± 30 M⁻¹ s⁻¹.

B2: SACE_4237 multidomain acyl-CoA carboxylase (enzyme, Saccharopolyspora erythraea, UniProt A4FHI1 1-1827, looked up)
chain: B1 chain
modifications: biotinylated (co-expressed biotin ligase from pCY216 to improve biotinylation; residue not stated)
notes: SACE_4237, multidomain acyl-CoA carboxylase (BC, BCCP, central region, CT) of Saccharopolyspora erythraea NRRL23338, about 200 kDa; gene amplified from chromosomal DNA with an NdeI site at the translational start codon and a SpeI site downstream of the stop codon; Eluted from size exclusion as a dimer (peak 1, 404 kDa) and a monomer (peak 2, 186.9 kDa); The row is of the protomer with itself; …
Take B2: in data set [3], the “stoichiometry N” value turned out to be 2.

As a reminder, the Km is the substrate concentration at which the rate is half of its maximum. The Vmax is the top rate of the reaction or transport when substrate is in excess. The kcat is the maximal rate divided by the concentration of active sites. What is called kcat/Km is the second-order rate constant that governs catalysis at low substrate concentration. Broadly, the stoichiometry N is a count of units in the complex or per binding partner.

Source of the values: publication PMC6491548, “A novel multidomain acyl-CoA carboxylase in Saccharopolyspora erythraea provides malonyl-CoA for de novo fatty acid biosynthesis” (Scientific Reports, 2019).
